± gives the standard deviation of the averaged measurements.
B1: library; a variant is named by its letters at N, in order (parent)
chain: GCUGUCACCGAGAAACUGUGAAGUAUAUCUUAAACCUGGGCACUUAAAAGAUAUAUGGAGUUAGUAGUGCAACCUGCUCGGUCUGAUGAGUCCNNNNNNGGACGAAACAGC

Legend:
cyclic di-GMP [1] = variants of: B1; assay: FACS-Seq fitted mean relative fluorescence mCherry/BFP without ligand (log10 relative fluorescence); HEK293T; ligand: cyclic di-GMP (c-di-GMP-II aptamer); higher = higher reporter protein expression; settings: ligand present: no
In short: (§1)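 HEK293T libraries were lentivirally transduced with an mCherry reporter carrying the ribozyme switch and an EF1α-BFP marker, enriched, and incubated for 48 h with or without ligand before sorting into 6 bins by mCherry/BFP. Genomic DNA from each bin was PCR-amplified, barcoded and sequenced on MiSeq. Fluorescence is the fitted normal mean of the bin counts. The fit used log10(mCherry/BFP), and means were scaled to five spiked-in control ribozymes.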

cyclic di-GMP [2] = variants of: B1; assay: normalized RNA/DNA level without ligand (relative to sTRSVctl = 100) (log10 (% of sTRSVctl)); HEK293T; ligand: cyclic di-GMP (c-di-GMP-II aptamer); higher = less ribozyme self-cleavage, higher mRNA level; settings: reporter: mCherry (pCS4076), ligand present: no
In short: (§2)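 Total RNA, extracted with EDTA 72 h after HEK293T cells were transfected with 4 µg per 6-well well of reporter-linked ribozyme switch library plasmids, was reverse-transcribed, amplified, barcoded and sequenced. Ligand, if used, was added 1 h before transfection. RNA level was derived from RNA reads divided by DNA reads and normalized to a spiked-in non-cleaving sequence or to the top sequences. This was multiplied by 100 and log10-transformed, with the top set of 25 sequences and a ≥100 DNA read minimum.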

cyclic di-GMP [3] = variants of: B1; assay: FACS-Seq fitted mean relative fluorescence mCherry/BFP with ligand (log10 relative fluorescence); HEK293T; ligand: cyclic di-GMP (c-di-GMP-II aptamer); ligand concentration (+) FACS-Seq: 1 mM; higher = higher reporter protein expression; settings: ligand present: yes
In short: as §1

cyclic di-GMP [4] = variants of: B1; assay: normalized RNA/DNA level with ligand (relative to sTRSVctl = 100) (log10 (% of sTRSVctl)); HEK293T; ligand: cyclic di-GMP (c-di-GMP-II aptamer); ligand concentration (+) RNA-Seq: 1 mM; higher = less ribozyme self-cleavage, higher mRNA level; settings: reporter: mCherry (pCS4076), ligand present: yes
In short: as §2

Row | Variant | FACS-Seq fitted mean (log10) (cyclic di-GMP [1]) | normalized RNA/DNA level without ligand (log10) (cyclic di-GMP [2]) | FACS-Seq fitted mean (log10) (cyclic di-GMP [3]) | normalized RNA/DNA level with ligand (log10) (cyclic di-GMP [4])
1 | GCCGUG | -0.238 ± 0.056 | 1.6 ± 0.097 | 0.0457 ± 0.053 | 1.8 ± 0.06
2 | GCAGCU | -0.242 ± 0.076 | 1.65 ± 0.018 | -0.0553 ± 0.039 | 1.78 ± 0.11
3 | GAGUUA | -0.199 ± 0.084 | 1.74 ± 0.033 | -0.129 ± 0.019 | 1.82 ± 0.14
4 | CCUCAG | -0.325 ± 0.018 | 1.669 ± 0.003 | -0.0311 ± 0.077 | 1.81 ± 0.14
5 | CACUUG | -0.104 ± 0.083 | 1.74 ± 0.026 | 0.131 ± 0.0033 | 1.87 ± 0.12
6 | ACAGUU | -0.579 ± 0.027 | 1.32 ± 0.13 | -0.312 ± 0.09 | 1.5 ± 0.073
7 | UCCCGU | -0.0215 ± 0.15 | 1.72 ± 0.022 | 0.3 ± 0.015 | 1.83 ± 0.15
8 | UAAAUU | 0.0621 ± 0.17 | 1.631 ± 0.016 | 0.394 ± 0.011 | 1.77 ± 0.11
9 | CGUGCA | -0.119 ± 0.16 | 1.68 ± 0.078 | 0.0822 ± 0.039 | 1.79 ± 0.1
10 | UGGCAU | 0.119 ± 0.25 | 1.66 ± 0.11 | 0.414 ± 0.038 | 1.82 ± 0.043
11 | UAGGGU | -0.424 ± 0.015 | 1.61 ± 0.075 | -0.0926 ± 0.068 | 1.78 ± 0.13
12 | AGAACA | 0.105 ± 0.17 | 1.53 ± 0.036 | 0.348 ± 0.0047 | 1.72 ± 0.13
13 | CUAAAA | -0.3961 ± 0.0027 | 1.35 ± 0.057 | -0.114 ± 0.1 | 1.61 ± 0.075
14 | ACGAGA | -0.604 ± 0.02 | 1.29 ± 0.12 | -0.453 ± 0.01 | 1.45 ± 0.067
15 | CGACGA | -0.45 ± 0.042 | 1.5 ± 0.094 | -0.105 ± 0.043 | 1.71 ± 0.071
16 | UCAUUU | -0.43 ± 0.036 | 1.637 ± 0.0076 | -0.178 ± 0.038 | 1.78 ± 0.14
17 | CGGGAA | -0.636 ± 0.012 | 1.33 ± 0.033 | -0.472 ± 0.015 | 1.36 ± 0.081
18 | UCCAGC | -0.739 ± 0.051 | 1.66 ± 0.059 | -0.609 ± 0.015 | 1.84 ± 0.15

Row | Variant | FACS-Seq fitted mean (log10) (cyclic di-GMP [1]) | normalized RNA/DNA level without ligand (log10) (cyclic di-GMP [2]) | FACS-Seq fitted mean (log10) (cyclic di-GMP [3]) | normalized RNA/DNA level with ligand (log10) (cyclic di-GMP [4])
19 | GUUGCG | -0.248 ± 0.029 | 1.81 ± 0.023 | 0.0336 ± 0.026 | 1.88 ± 0.092
20 | GUAUUU | -0.574 ± 0.0067 | 1.686 ± 0.0056 | -0.186 ± 0.035 | 1.82 ± 0.085
21 | ACUGCU | -0.0841 ± 0.15 | 1.616 ± 0.01 | 0.249 ± 0.013 | 1.8 ± 0.14
22 | CCGGAU | -0.339 ± 0.015 | 1.55 ± 0.074 | -0.0202 ± 0.13 | 1.76 ± 0.1
23 | AAGAAA | -0.319 ± 0.062 | 1.38 ± 0.11 | -0.0342 ± 0.062 | 1.56 ± 0.035
24 | AUGAAA | -0.678 ± 0.011 | 1.4 ± 0.14 | -0.502 ± 0.026 | 1.64 ± 0.1
25 | UACGUG | -0.864 ± 0.019 | 1.69 ± 0.031 | -0.635 ± 0.083 | 1.85 ± 0.12
26 | AGUGCA | -0.382 ± 0.034 | 1.61 ± 0.046 | -0.043 ± 0.018 | 1.79 ± 0.096
27 | CCAAAU | -0.277 ± 0.053 | 1.52 ± 0.099 | -0.0208 ± 0.13 | 1.71 ± 0.074
28 | AGUAAA | -0.319 ± 0.071 | 1.41 ± 0.038 | 0.121 ± 0.012 | 1.62 ± 0.1
29 | GCUCGU | -0.452 ± 0.016 | 1.692 ± 0.015 | -0.0822 ± 0.049 | 1.83 ± 0.038
30 | GAUACA | -0.276 ± 0.023 | 1.65 ± 0.032 | -0.124 ± 0.088 | 1.8 ± 0.11
31 | GAUAAU | -0.142 ± 0.21 | 1.59 ± 0.068 | 0.0798 ± 0.079 | 1.75 ± 0.075
32 | CGAACA | -0.456 ± 0.075 | 1.58 ± 0.045 | -0.276 ± 0.0035 | 1.7 ± 0.074
33 | CUUGGA | -0.381 ± 0.03 | 1.55 ± 0.031 | -0.107 ± 0.044 | 1.73 ± 0.16
34 | CUUAUA | -0.487 ± 0.096 | 1.44 ± 0.09 | -0.184 ± 0.028 | 1.65 ± 0.088
35 | GAUUGA | 0.00942 ± 0.089 | 1.5 ± 0.084 | 0.252 ± 0.042 | 1.7 ± 0.072
36 | CUCUAC | -0.26 ± 0.15 | 1.69 ± 0.038 | -0.0375 ± 0.07 | 1.82 ± 0.11
